# Positions of bridges follow the written chain, without caps; N, C: chain ends. No end group written: not given here.
# B1: ACE-2 binding polypeptide RYLCLPQRDKPWKFCNWF (peptide)
# peptide: RYLCLPQRDKPWKFCNWF
# modifications: not fully specified (N-terminus, C-terminus, bridges); cysteine pairing not given here
# B2: ACE-2 binding polypeptide FQLCFDWEEECEES (peptide)
# peptide: FQLCFDWEEECEES
# modifications: not fully specified (bridges); cysteine pairing not given here
# B3: ACE-2 binding polypeptide WDHCNWAHPCSRK (peptide)
# peptide: WDHCNWAHPCSRK
# modifications: not fully specified (bridges); cysteine pairing not given here
# B4: ACE-2 binding polypeptide YSHCSPLRYYPWWKCTYP (peptide)
# peptide: YSHCSPLRYYPWWKCTYP
# modifications: not fully specified (N-terminus, C-terminus, bridges); cysteine pairing not given here
# B5: ACE-2 binding polypeptide YWFCFDWEEDANGHCGGN (peptide)
# peptide: YWFCFDWEEDANGHCGGN
# modifications: not fully specified (bridges); cysteine pairing not given here
# B6: ACE-2 binding polypeptide LEMCEALFCVEF (peptide)
# peptide: LEMCEALFCVEF
# modifications: disulfide 4-9 (inferred); not fully specified (N-terminus, C-terminus)
# B7: ACE-2 binding polypeptide SDWCGTWNNPCFHQ (peptide)
# peptide: SDWCGTWNNPCFHQ
# modifications: not fully specified (N-terminus, C-terminus, bridges); cysteine pairing not given here
# B8: ACE-2 binding polypeptide YQFCFDWETTCWLD (peptide)
# peptide: YQFCFDWETTCWLD
# modifications: not fully specified (bridges); cysteine pairing not given here
# B9: ACE-2 binding polypeptide WQFCFDWDLNCDLR (peptide)
# peptide: WQFCFDWDLNCDLR
# modifications: not fully specified (bridges); cysteine pairing not given here
# B10: ACE-2 binding polypeptide WAVCFDWEN-CGDK (peptide)
# peptide: WAVCFDWENCGDK
# modifications: not fully specified (bridges); printed as W A V C F D W E N - C G D K; cysteine pairing not given here
# notes: one position printed as '-'
# B11: ACE-2 binding polypeptide LHACRPVRGDPWWACTLG (peptide)
# peptide: LHACRPVRGDPWWACTLG
# modifications: disulfide 4-15 (inferred); not fully specified (N-terminus, C-terminus)
# B12: ACE-2 binding polypeptide FLLCFDWDIDWEYGCQHH (peptide)
# peptide: FLLCFDWDIDWEYGCQHH
# modifications: not fully specified (bridges); cysteine pairing not given here
# B13: ACE-2 binding polypeptide EHNCTWWNPCWTT (peptide)
# peptide: EHNCTWWNPCWTT
# modifications: not fully specified (bridges); cysteine pairing not given here
# B14: ACE-2 binding polypeptide VYFCFDWEQDCDEM (peptide)
# peptide: VYFCFDWEQDCDEM
# modifications: not fully specified (N-terminus, C-terminus, bridges); cysteine pairing not given here
# B15: ACE-2 binding polypeptide MDHCTWYQPCVLK (peptide)
# peptide: MDHCTWYQPCVLK
# modifications: not fully specified (bridges); cysteine pairing not given here
# B16: ACE-2 binding polypeptide QKECKFGYPHCLPW (peptide)
# peptide: QKECKFGYPHCLPW
# modifications: not fully specified (N-terminus, C-terminus, bridges); cysteine pairing not given here
# B17: ACE-2 binding polypeptide WEVCHWAPMMCKHG (peptide)
# peptide: WEVCHWAPMMCKHG
# modifications: not fully specified (N-terminus, C-terminus, bridges); cysteine pairing not given here
# B18: ACE-2 binding polypeptide YEECHWRPMACSTH (peptide)
# peptide: YEECHWRPMACSTH
# modifications: not fully specified (bridges); cysteine pairing not given here
# B19: ACE-2 binding polypeptide RLHCKPQRQSPWMKCQHL (peptide)
# peptide: RLHCKPQRQSPWMKCQHL
# modifications: not fully specified (N-terminus, C-terminus, bridges); cysteine pairing not given here
# B20: ACE-2 binding polypeptide YEFCHYAPQECKHM (peptide)
# peptide: YEFCHYAPQECKHM
# modifications: not fully specified (bridges); cysteine pairing not given here
# B21: DX-513 Ac-GDLHACRPVRGDPWWACTLGDPEGGG-NH2 (peptide)
# peptide: Ac-GDLHACRPVRGDPWWACTLGDPEGGG-NH2
# modifications: disulfide 6-17 (inferred); also: oxidized peptide
# notes: synthetic, TN12 library; also called ACEH2-D8
# B22: DX-512 Ac-GDRLHCKPQRQSPWMKCQHLDPEGGG-NH2 (peptide)
# peptide: Ac-GDRLHCKPQRQSPWMKCQHLDPEGGG-NH2
# modifications: disulfide 6-17 (inferred); also: oxidized peptide
# notes: synthetic, TN12 library; also called B-H7
# B23: DX-524 Ac-GSRIGCRDSRCNWWAPGEGGG-NH2 (peptide)
# peptide: Ac-GSRIGCRDSRCNWWAPGEGGG-NH2
# modifications: disulfide 6-11 (inferred); also: oxidized peptide
# B24: DX-525 Ac-GSRGFCRDSSCSFPAPGEGGG-NH2 (peptide)
# peptide: Ac-GSRGFCRDSSCSFPAPGEGGG-NH2
# modifications: disulfide 6-11 (inferred); also: oxidized peptide
# B25: DX-599 Ac-GDRYLCLPQRDKPWKFCNWFDPEGGG-NH2 (peptide)
# peptide: Ac-GDRYLCLPQRDKPWKFCNWFDPEGGG-NH2
# modifications: disulfide 6-17 (inferred); also: oxidized peptide
# B26: DX-529 Ac-AGWEVCHWAPMMCKHGGTEGGG-NH2 (peptide)
# peptide: Ac-AGWEVCHWAPMMCKHGGTEGGG-NH2
# modifications: disulfide 6-13 (inferred); also: oxidized peptide
# B27: DX-531 Ac-AGSDWCGTWNNPCFHQGTEGGG-NH2 (peptide)
# peptide: Ac-AGSDWCGTWNNPCFHQGTEGGG-NH2
# modifications: disulfide 6-13 (inferred); also: oxidized peptide
# B28: DX-601 Ac-GDGFTCSPIRMFPWFRCDLGDPEGGG-NH2 (peptide)
# peptide: Ac-GDGFTCSPIRMFPWFRCDLGDPEGGG-NH2
# modifications: disulfide 6-17 (inferred); not fully specified; printed as Ac-GDGFTCSPIRMFPWFRCDLGDPEGGG-NH2
# B29: DX-530 Ac-AGQKECKFGYPHCLPWGTEGGG-NH2 (peptide)
# peptide: Ac-AGQKECKFGYPHCLPWGTEGGG-NH2
# modifications: disulfide 6-13 (inferred); also: oxidized peptide
# B30: DX-602 Ac-GDFSPCKALRHSPWWVCPSGDPEGGG-NH2 (peptide)
# peptide: Ac-GDFSPCKALRHSPWWVCPSGDPEGGG-NH2
# modifications: disulfide 6-17 (inferred); also: oxidized peptide
# Target: T1, FLAG-tagged ACE-2 target (human, UniProt Q9BYF1 18-740)
# T1 construct: range 1-740; obtained from Human Genome Sciences, Inc; also called FLAG-ACE-2; tagged human ACE-2; not shown: FLAG tag
# T1 sequence (Q9BYF1 18-740 limits assumed): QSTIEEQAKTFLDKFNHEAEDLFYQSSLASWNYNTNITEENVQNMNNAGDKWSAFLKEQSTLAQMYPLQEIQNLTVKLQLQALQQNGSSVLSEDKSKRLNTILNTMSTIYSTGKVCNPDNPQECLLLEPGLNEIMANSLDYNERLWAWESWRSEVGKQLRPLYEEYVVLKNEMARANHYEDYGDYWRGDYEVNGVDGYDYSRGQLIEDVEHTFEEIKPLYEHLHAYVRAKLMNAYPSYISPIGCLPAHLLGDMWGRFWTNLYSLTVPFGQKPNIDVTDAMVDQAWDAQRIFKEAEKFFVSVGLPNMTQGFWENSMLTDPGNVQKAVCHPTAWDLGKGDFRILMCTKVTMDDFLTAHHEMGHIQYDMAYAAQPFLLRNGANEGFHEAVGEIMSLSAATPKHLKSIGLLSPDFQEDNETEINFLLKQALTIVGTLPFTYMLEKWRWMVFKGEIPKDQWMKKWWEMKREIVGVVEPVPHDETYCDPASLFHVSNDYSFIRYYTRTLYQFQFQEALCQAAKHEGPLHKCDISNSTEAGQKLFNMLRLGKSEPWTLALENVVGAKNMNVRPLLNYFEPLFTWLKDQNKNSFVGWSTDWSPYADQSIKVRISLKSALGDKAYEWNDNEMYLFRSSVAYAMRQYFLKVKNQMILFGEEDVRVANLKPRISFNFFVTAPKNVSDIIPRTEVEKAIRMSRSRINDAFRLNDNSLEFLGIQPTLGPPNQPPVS
# Experiment: phage ELISA on FLAG-ACE-2
# Description: Phage enriched from the third round of selection were screened by ELISA for strong ACE-2 binders. Immulon 2 96-well plates (Dynatech) were coated with streptavidin for 1 hour at 37° C. and subsequently coated with anti-FLAG antibody for 1 hour at room temperature. Half of the plates were further coated with FLAG-ACE-2 as the target plates, and the other half of the plates were coated with FLAG peptide as background plates. The amount of each protein or peptide coated was 100 ng per well. The coated plates were then incubated for 1 hour at room temperature with 1:2 diluted overnight phage cultures that were made by inoculating phage from individual plaques into bacterial host cells. After being washed 7 times with PBST, the plates were incubated with HRP-conjugated anti-M13 antibody (Pharmacia) for 1 hour at room temperature, washed 5 times, developed with TMB peroxidase substrate solution (Kirkegaad & Perry Laboratories, Gaithersburg, Md.), and read at 630 nm on an ELISA plate reader.
row,binding result,Binder
1,binds,B1
2,binds,B2
3,binds,B3
4,binds,B4
5,binds,B5
6,binds,B6
7,binds,B7
8,binds,B8
9,binds,B9
10,binds,B10
11,binds,B11
12,binds,B12
13,binds,B13
14,binds,B14
15,binds,B15
16,binds,B16
17,binds,B17
18,binds,B18
19,binds,B19
20,binds,B20

# Target: T2, recombinant human-ACE-2 (human, UniProt Q9BYF1 18-740, limits assumed)
# T2 construct: Enzyme of the M-2195 fluorometric assay; also called rhACE-2
# T2 sequence (Q9BYF1 18-740 limits assumed): as above
# Experiment: fluorometric ACE-2 activity assay, M-2195 substrate
# Description: Assay mixture was prepared first by pre-incubating (30 minutes, room temperature) the enzyme with the inhibitor (0.45 μg ([…]) ACE-2, 0-0.5 μM inhibitor rage, up to 90 […] volume with 100 mM TRIS pH 7.4, 0.1% Tween-20, 0.4% DMSO) in each well, in triplicate, by dispensing volumes using a repeat pipetter (Rainin) into a 96-well clear-bottom back plate (Costar, 07-200-590). […] Substrate stock (10 μL of 10× concentration) was added to each well to be tested in blocks of three vertically down the plate. The reaction was monitored on a Spectrafluor Plus (Tecan) at an excitation wavelength of 340 nm and an emission wavelength of 400 nm (+/−35 nm) every 30 seconds for a time period of 10 minutes.
row,Ki [nM],Binder
1,150,B21
2,150,B22

# Target: T2, recombinant human-ACE-2
# Experiment: cell-based or functional assay
row,IC50 [nM],Binder
1,600,B23
2,1000,B24
3,90,B21
4,140,B25
5,400,B26
6,500,B27
7,60,B22
8,68,B28
9,30000,B29
10,120,B30

# Source: patent US20030138894A1 (Human Genome Sciences, published 2003)
